Results reported in patent US20130136743A1 (LABORATOIRE FRANCAIS DU FRACTIONNEMENT ET DES …, published 2013).
Positions count from the first letter of the chain named. Names may count otherwise.

B1: huVH-VL, humanized antibody huLFB112 expressed as scFv on phage (scFv, part only; not given: scFv linker and phage partner, V domains shown, not shown: another chain or arm of the molecule; large carriers; small tags and cut ends)
VH: QVQLVQSGAEVKKPGASVKVSCKASGYTFTSYHIHWVRQAPGQRLEWMGWIYPGDDSTKYSQKFQGRVTITRDTSASTAYMELSSLRSEDTAVYYCTRGDRFAYWGQGTLVTVSS
VL: DIQMTQSPSTLSASVGDRVTITCRASSSVRYIAWYQQKPGKAPKLLIYSTSSLESGVPSRFSGSGSGTEFTLTISSLQPDDFATYYCLQWSSYPWTFGGGTKVEIK
B2: mutated humanized 12G4 antibody 3C-23K produced in YB2/0 (antibody, human IgG1, kappa, V domains shown)
VH: B1 VH with Q3R
VL: DIQMTQSPSTLSASVGDRVTITCRASSSVRYIAWYQQKPGKAPKLLTYPTSSLKSGVPSRFSGSGSGTEFTLTISSLQPDDFATYYCLQWSSYPWTFGGGTKVEIKR
notes: Chains without leader; also called 3C_23K YB2/0; 3C-23K-YB2/0
B3: mutated humanized 12G4 antibody 6B-78 produced in YB2/0 (antibody, human IgG1, kappa, V domains shown)
VH: B1 VH
VL: B2 VL with T47I, P49S
notes: Chains without leader; Mutation VL-E184K; also called 6B_78 YB2/0; R901 6B78
B4: mutated humanized 12G4 antibody 3C-23 produced in YB2/0 (antibody, human IgG1, kappa, V domains shown)
VH: B1 VH with Q3R
VL: B2 VL with K54E
notes: Chains without leader; Mutations VH-Q3R, VL-I177T/S179P; also called 3C_23 YB2/0; R901 3C23
B5: murine 12G4 monoclonal antibody (antibody, V domains shown)
VH: QVQLQQSGPELVKPGASVRMSCKASGYTFTSYHIHWVKQRPGQGLEWIGWIYPGDDSTKYNEKFKGKTTLTADKSSSTAYMLLSSLTSEDSAIYFCTRGDRFAYWGQGTLVTVSA
VL: QIVLTQSPAIMSASLGEGITLTCSASSSVRYIHWYQQKSGTSPKLLIYSTSNLASGVPSRFSGSGSGTFHSLTISSVEAEDAADYYCLQWSSYPWTFGGGTKLEIK
notes: also called mLFB112; original murine 12G4 antibody

Tests used:
[1] = biological target: T1, AMHR-II/Fc fusion protein (human, UniProt Q16671 18-149, limits assumed); assay: direct phage ELISA, target coated at 500 ng/well; 3.00E+10 phages per well as printed
T1 construct: also called AMHR-II recombinant receptor expressed in the form of fusion protein with a region Fc; recombinant target; not shown: Fc region

[2] = biological target: T1, AMHR-II/Fc fusion protein; assay: direct phage ELISA, target coated at 500 ng/well; 3.00E+10 phages per well as printed (second row)
[3] = biological target: T1, AMHR-II/Fc fusion protein; assay: direct phage ELISA, target coated at 500 ng/well; 3.00E+09 phages per well as printed
[4] = biological target: T1, AMHR-II/Fc fusion protein; assay: direct phage ELISA, target coated at 500 ng/well; 3.00E+09 phages per well as printed (second row)
[5] = biological target: T1, AMHR-II/Fc fusion protein; assay: direct phage ELISA, target coated at 500 ng/well; 3.00E+09 phages per well as printed (third row)
[6] = biological target: T2, AMHRII receptor expressed on cells (cov434-AMHRII, Asc 1, META 2815) (human, UniProt Q16671 18-573); assay: cell-based or functional assay
T2 sequence (looked up): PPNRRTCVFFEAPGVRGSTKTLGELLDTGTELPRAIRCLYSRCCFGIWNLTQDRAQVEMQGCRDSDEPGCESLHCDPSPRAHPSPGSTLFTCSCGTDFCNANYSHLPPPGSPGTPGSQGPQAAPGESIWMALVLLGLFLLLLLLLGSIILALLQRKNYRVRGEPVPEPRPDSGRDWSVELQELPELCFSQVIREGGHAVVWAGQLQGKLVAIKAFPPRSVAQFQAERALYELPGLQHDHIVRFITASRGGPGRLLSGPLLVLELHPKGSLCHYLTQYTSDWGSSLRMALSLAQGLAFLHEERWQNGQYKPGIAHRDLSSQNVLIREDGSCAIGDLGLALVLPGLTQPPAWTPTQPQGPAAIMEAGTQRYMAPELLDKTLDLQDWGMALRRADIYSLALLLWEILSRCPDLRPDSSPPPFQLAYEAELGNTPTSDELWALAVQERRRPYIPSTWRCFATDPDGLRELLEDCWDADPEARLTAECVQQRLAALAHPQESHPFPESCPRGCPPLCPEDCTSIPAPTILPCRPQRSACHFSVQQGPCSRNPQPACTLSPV

[7] = biological target: T1, AMHR-II/Fc fusion protein; assay: SPR, BIAcore X100; AMHR-II/Fc immobilised on CM5 chip, antibody injected; 25 C
Experimental: (§1) The affinity of the antibodies for their antigen, AMHR-II, is determined by the SPR (Surface Plasmon Resonance) technique on BIACore X100 (BIACore, GE Healthcare). The AMHR-II recombinant receptor, expressed in the form of fusion protein with a region Fc, is immobilized by covalent coupling between its amine functions and the carboxyl groups of dextran activated in succinimide esters, present on the surface of the type CM5 sensor chip. The COOH groups of the sensor chip are activated for 7 minutes with EDC/NHS mixture (0.1 M of N-hydroxysuccinimide and 0.1 M of 3-(N,N-dimethylamino)propyl-N-ethylcarbodiimide) at a flow of 10 μl/min then the AMHR-II/Fc fusion protein, diluted to 5 μg/ml in 10 mM sodium acetate buffer, pH 4.0, is injected at […] on track 2 of the sensor chip so as to reach 300 RU. The ester groups that have not reacted with the amines of the fusion protein are deactivated by injection of a solution of ethanolamine-HCl 1M, pH 8.5 for 7 min at a flow of 10 μl:min. Track 1, serving as negative control, was activated and deactivated like track 2.
(§2) All the measurements are carried out at 25° C. The antibodies to be analysed are diluted in HBS-EP running buffer (BIACore, GE Healthcare) at concentrations from 6.25 to 3333 nM and injected on the sensor chip for 2 min at a flow of 30 μl/min. The dissociation step is monitored for 10 min and then the surface is regenerated by injection of 10 mM glycine buffer, pH 1.5 for 30 s at 10 μl/min.
(§3) The sensorgrams obtained are analysed using the 1:2 kinetic model of the BIAevaluation 3.1 software.

[8] = biological target: T2, AMHRII receptor expressed on cells …; assay: cell-based or functional assay; remark: listed apart in the source
[9] = biological target: T2, AMHRII receptor expressed on cells …; assay: cell-based or functional assay; remark: listed apart in the source
[10] = biological target: T1, AMHR-II/Fc fusion protein; assay: SPR, BIAcore X100; ratio against the chimeric 12G4
Experimental: as §1, §2, §3

[11] = biological target: T2, AMHRII receptor expressed on cells …; assay: saturation binding of 125I-labelled antibody to cov434-AMHRII cells, Scatchard analysis
Experimental: Briefly, KD was determined by the saturation method, by adding increasing doses of radiolabelled antibody to a constant number of cov434-AMHRII cells. […] For each antibody, fourfold dilutions were carried out in PBS/BSA 0.5% from the solutions of labelled and unlabelled antibody (84.4 μg/ml). The nonspecific fixation was evaluated by incubating the cells in the presence of a 100 times molar excess of unlabelled antibody.
After incubation, the samples were frozen in liquid nitrogen and then analysed in a gamma counter. The specific fixation was determined by subtracting the fixation obtained in the presence of an excess of unlabelled antibody.

[12] = biological target: T3, Epitope peptide GGGGNLTQDRAQVEMQGSR; assay: method not stated; Example 2, heading names cov434-AMHR-II cells and the epitope peptide
T3 peptide: GGGGNLTQDRAQVEMQGSR

| Binder | % of lysis of ASC1 cells (ADCC with NK cells, LDH release) at 0.001 ng/ml antibody [6] [%] | % of lysis of ASC1 cells (ADCC with NK cells, LDH release) at 0.005 ng/ml antibody [6] [%] | % of lysis of ASC1 cells (ADCC with NK cells, LDH release) at 0.05 ng/ml antibody [6] [%] | % of lysis of ASC1 cells (ADCC with NK cells, LDH release) at 0.5 ng/ml antibody [6] [%] | % of lysis of ASC1 cells (ADCC with NK cells, LDH release) at 5 ng/ml antibody [6] [%] | % of lysis of ASC1 cells (ADCC with NK cells, LDH release) at 50 ng/ml antibody [6] [%] | % of lysis of ASC1 cells (ADCC with NK cells, LDH release) at 500 ng/ml antibody [6] [%] | % of lysis of ASC1 cells (ADCC with NK cells, LDH release) at 5000 ng/ml antibody [6] [%] | Kd [7] [nM] | koff [7] [s⁻¹] | kon [7] [M⁻¹ s⁻¹] | EC50 (ng/ml), ADCC on ASC1 cells [8] [ng/mL] | Emax (% of lysis), ADCC on ASC1 cells [8] | 50% relative, ADCC on the COV434-AMHRII line (chimeric antibody = 1) [9] | KD chimeric/KD mutated [10] | Kd [11] [nM] | further results |
| --- | --- | --- | --- | --- | --- | --- | --- | --- | --- | --- | --- | --- | --- | --- | --- | --- | --- |
| B1 | – | – | – | – | – | – | – | – | – | – | – | – | – | – | – | – | OD 450 nm, +covering [1]: 1.25 OD; OD 450 nm, Diff (specific binding) [1]: 1.1 OD; OD 450 nm, +covering [2]: 0.689 OD; OD 450 nm, Diff (specific binding) [2]: 0.593 OD; OD 450 nm, +covering [3]: 0.395 OD; OD 450 nm, Diff (specific binding) [3]: 0.323 OD; OD 450 nm, +covering [4]: 0.226 OD; OD 450 nm, Diff (specific binding) [4]: 0.17 OD; OD 450 nm, +covering [5]: 0.135 OD; OD 450 nm, Diff (specific binding) [5]: 0.086 OD |
| B2 | 0 | 8 | 10 | 26 | 51 | 67 | 79 | 75 | 21 | 0.00086 | 40000 | 1.7 | 79 % of lysis | 0.84 | 10 | 5.3 | EC50, ADCC on Asc 1 cells [9]: ~2.24 ng/mL; EC50, ADCC on META 2815 cells [9]: 30.5 ng/mL; fold cytotoxic activity on Asc 1 cells against 3C-23K-CHO [9]: ~40 fold; fold cytotoxic activity on META 2815 cells against 3C-23K-CHO [9]: ~146 fold; fold affinity against the original murine 12G4 antibody [11]: ~3 fold |
| B3 | 0 | 14 | 5 | 3 | 28 | 42 | 48 | 53 | 82 | 0.0013 | 16000 | 5.38 | 51.9 % of lysis | 36.9 | 2.6 | 6.68 | – |
| B4 | 0 | 8 | 9 | 13 | 35 | 46 | 52 | 63 | 92 | 0.0033 | 36000 | 6.3 | 65.5 % of lysis | 6.41 | 2.3 | 7.33 | – |
| B5 | – | – | – | – | – | – | – | – | – | – | – | – | – | – | – | 15.4 | Kd [12]: ~100 nM; koff [12]: 0.00147 s⁻¹ |
